How the values were obtained:
Conditions in all cases: none besides dye labels, binding temperature not given
PARP2 (mouse) [1] = assay: spFRET
PARP2 (mouse) [2] = assay: EMSA
PARP2 (mouse) [3] = assay: EMSA; remark: listed apart in the source

NP nucleosome (603, 187 bp)
K half (PARP2 (mouse) [1]): 19 nM | K half (PARP2 (mouse) [2]): 40 nM | K half (PARP2 (mouse) [3]): 40 nM

From doi:10.1101/2023.10.17.562808
